Experimental data published in US20140235820A1, “METHODS AND COMPOSITIONS FOR MODULATING THE Wnt PATHWAY” (Genentech, Inc., priority 2010, published 2014).

Biological target: T1, LRP6 (Homo sapiens, UniProt O75581)
T1 construct: made in house; host or cells: Tni insect cells (baculovirus, secreted)
T1 sequence (O75581 20-1253): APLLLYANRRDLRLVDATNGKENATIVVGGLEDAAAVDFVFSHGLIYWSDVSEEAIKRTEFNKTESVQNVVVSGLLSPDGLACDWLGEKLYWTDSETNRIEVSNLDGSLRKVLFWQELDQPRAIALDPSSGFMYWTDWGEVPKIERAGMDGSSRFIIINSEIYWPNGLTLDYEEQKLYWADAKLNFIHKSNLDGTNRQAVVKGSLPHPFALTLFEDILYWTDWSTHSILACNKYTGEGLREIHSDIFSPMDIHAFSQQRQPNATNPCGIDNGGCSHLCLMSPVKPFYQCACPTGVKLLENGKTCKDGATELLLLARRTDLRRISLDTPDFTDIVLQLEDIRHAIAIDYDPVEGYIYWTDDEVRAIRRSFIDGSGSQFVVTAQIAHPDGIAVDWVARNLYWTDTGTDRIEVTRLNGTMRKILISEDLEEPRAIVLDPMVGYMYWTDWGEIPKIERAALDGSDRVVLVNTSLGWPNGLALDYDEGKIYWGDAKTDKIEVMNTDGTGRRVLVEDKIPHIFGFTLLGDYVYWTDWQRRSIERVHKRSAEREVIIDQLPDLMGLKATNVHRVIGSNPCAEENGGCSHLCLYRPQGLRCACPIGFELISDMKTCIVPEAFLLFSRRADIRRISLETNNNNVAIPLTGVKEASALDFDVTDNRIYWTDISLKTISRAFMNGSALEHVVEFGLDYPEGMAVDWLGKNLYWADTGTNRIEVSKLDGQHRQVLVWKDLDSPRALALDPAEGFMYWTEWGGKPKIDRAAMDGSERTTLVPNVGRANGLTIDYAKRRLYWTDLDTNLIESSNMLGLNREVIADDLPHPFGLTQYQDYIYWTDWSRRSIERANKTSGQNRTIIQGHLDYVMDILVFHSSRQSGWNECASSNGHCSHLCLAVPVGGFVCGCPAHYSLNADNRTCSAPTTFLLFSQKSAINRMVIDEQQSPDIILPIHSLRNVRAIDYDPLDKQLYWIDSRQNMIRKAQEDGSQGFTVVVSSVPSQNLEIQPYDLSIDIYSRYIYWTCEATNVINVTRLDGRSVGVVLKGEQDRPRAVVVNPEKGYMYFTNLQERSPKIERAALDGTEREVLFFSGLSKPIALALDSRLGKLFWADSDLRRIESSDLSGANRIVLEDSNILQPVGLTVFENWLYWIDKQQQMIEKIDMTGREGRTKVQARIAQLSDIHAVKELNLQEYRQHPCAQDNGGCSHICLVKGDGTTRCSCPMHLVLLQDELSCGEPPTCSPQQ
Assay: Biolayer interferometry binding to any LRP6 construct tested
Experimental: Binding kinetics were measured by biolayer interferometry using an Octet Red instrument (ForteBio) as previously described (11). Streptavidin (SA) biosensors were loaded with biotinylated hLRP6 in 50 mMTris, pH 8, 300 mM NaCl, 5% (v/v) glycerol, and 0.05% (w/v) Triton X-100. The loaded biosensors were washed in the same buffer before carrying out association and dissociation measurements for the indicated times. The Kd of each interaction was determined using steady state-analysis through the Octet Red software v6.3. Each reported value represents an average of three or more experiments at different concentrations, with a fitted experimental curve for which the square of the correlation coefficient (R^2) is above 0.96.
The interaction of the different Dkks and sclerostin with various domains of LRP6 was measured using a biolayer interferometry assay (11). Purified receptors contained individual β-propeller-EGF-like units (E1, E2, or E4), two β-propellers (E1E2 or E3E4), or four β-propellers (E1E4))—as follows:
Human LRP6: construct E1E4-amino acids A20-Q1253 of LPR6; construct E1E2-amino acids A20-E631 of LPR6; construct E3E4 amino acids E631-Q1253 of LPR6; construct E1-amino acids A20-D325 of LPR6; construct E2-amino acids […]-E631 of LPR6; construct E4-T933-Q1253. The individual LRP6 β-propeller E3 could not be expressed.

binding to any LRP6 construct tested: failed to bind
Substance: Dkk3: Dickkopf 3, carrier-free protein from R&D Systems
